Experimental data published in patent publication US20230121197A1, “ANTIBODIES SPECIFICALLY BINDING THE CARBOXYMETHYLATED CATALYTIC SUBUNIT OF PROTEIN PHOSPHATASE 2A” (Medizinische Universität Wien, priority 2020, published 2023).

T1: C-terminal PP2Ac peptide Y307F, CGEPHVTRRTPDFFL (15-mer)
T1 construct: Non-carboxymethylated; Phe in place of Tyr307; Crosslinked to BSA in the Western blot; free or linked to BSA in the ELISA
T1 peptide: CGEPHVTRRTPDFFL


Assays:
[1] = target: T1, C-terminal PP2Ac peptide Y307F, …; test: Western blot of 100 ng BSA crosslinked with peptide, detected through 16B12
Experimental: 100 ng of BSA crosslinked with peptides (L309: […] (SEQ ID NO:49), Y307F: […] (SEQ ID NO.50), pY307: […]pYFL (SEQ ID NO:51) or meL309: […]-CH₃) (SEQ ID NO:49) was separated by 10% SDS-PAGE and transferred to nitrocellulose membrane (0.2 μm, GE Healthcare). […] The membranes were blocked in 3% non-fatty dry milk (NFDM) in TBS-Tween for 1 h at RT and incubated with single clone hybridoma cell culture supernatant, clone 7C10-C5 diluted 1:100 in 0.5% NFDM in TBS-T (7C10 X63), recombinant single chain variable fragment of antibody 7C10-C5, undiluted (7C10 scFvs), recombinant bivalent single chain variable fragment 7C10-C5, undiluted (7C10 bi-scFvs) or single clone hybridoma cell culture supernatant, clone 1D7 (binding to non-carboxymethylated PP2Ac) 1:100 in 0.5% NFDM in TBS-T o/n at 4° C. After washing 3×5 min in TBS-T, blots incubated with recombinant antibodies were incubated with mouse anti-HA monoclonal antibody 16B12 (recognizing the hemagglutinin (HA) tag on the recombinant antibody), 1:10000 in 0.5% NFDM in TBS-T 2 h at room temperature. After washing 3×5 min in TBS-T, incubation with anti-mouse-HRP coupled secondary antibody for 1 h at RT and 3×10 min washes in TBS-T was performed. ECL was performed with GE Healthcare ECL reagents (RPN2106) mixed 1:3 with Clarity™ Western ECL Substrate, 500 ml #1705061 (Biorad). Signals were detected by exposure of X-ray films. […]

[2] = target: T2, C-terminal PP2Ac peptides L309, Y307F, pY307, meL309 (Homo sapiens, UniProt P67775); test: ELISA with CGEPHVTRRTPDYFL peptides free or linked to BSA (scFv and recombinant 7C10-C5); type: binding; details: peptides free or linked to BSA
T2 construct: coated with C-terminal PP2Ac peptides either free or linked to BSA; BSA (carrier)
Experimental: Nunc Medisorp 96-well ELISA flat-bottom plates were coated with C-terminal PP2Ac peptides either free or linked to BSA. Specifically, the peptides were: unmodified L309 (CGEPHVTRRTPDYFL) (SEQ ID NO:49), Y307F (CGEPHVTRRTPDFFL) (SEQ ID NO:50), pY307 (CGEPHVTRRTPDpYFL) (SEQ ID NO:51) or carboxymethylated meL309 (CGEPHVTRRTPDYFL-CH3) (SEQ ID NO:49), on the ELISA plate at 8 μg/ml in TBS (free) or 1 μg/ml in TBS (linked to BSA) at 4° C. overnight. After washing twice with TBS, the wells were incubated with 2% BSA in TBS for 1 h at RT. After washing once with TBS, the wells were incubated with single clone hybridoma cell culture supernatant, clone 7C10-C5 1:50 (7C10 X63), recombinant single chain variable fragment of antibody 7C10-C5, undiluted (7C10 scFvs), or recombinant bivalent single chain variable fragment of antibody 7C10-C5, undiluted (7C10 bi-scFvs). After washing 3× with TBS, wells incubated with recombinant antibodies were incubated with monoclonal antibody 16B12, 1:10000 (recognizing the hemagglutinin tag on the recombinant antibody) in 1% BSA TBS 1 h at room temperature. After washing 3× in TBS, incubation with anti-mouse-HRP coupled secondary antibody for 1 h at RT was performed. Bound antibodies were detected by colorimetric reaction with 3,3′,5,5′-Tetramethylbenzidine as substrate, and absorbance was measured at 450 nm. Values were normalized to meL309 which was arbitrarily set to 1. Average and standard deviation of N=3 experiments are shown.
Nunc Medisorp 96-well ELISA flat-bottom plates were coated with peptides either free or linked to BSA, L309 (CGEPHVTRRTPDYFL) (SEQ ID NO:49) or meL309 (CGEPHVTRRTPDYFL-CH3) (SEQ ID NO:49), on the ELISA plate at 0.5 μg/ml in TBS (free) or […] in TBS (linked to BSA) at 4° C. over night. After washing twice with TBS, the wells were incubated with 2% BSA in TBS for 1 h at RT. After washing once with TBS, the wells were incubated with single clone hybridoma cell culture supernatant, clone 7C10-C5 1:50 (7C10 X63), or recombinant antibody 7C10-C5 undiluted (rec 7C10). After washing 3× with TBS, incubation with anti-mouse-HRP coupled secondary antibody for 1 h at RT was performed. Bound antibodies were detected by colorimetric reaction with 3,3′,5,5′-Tetramethylbenzidine as substrate, and absorbance was measured at 450 nm. Values were normalized to meL309 incubated with 7C10 X63, which was arbitrarily set to 1. Average and standard deviation of N=3 experiments are shown (FIG. 30).

PP2Ac = target: T3, PP2Ac (Homo sapiens, UniProt P67775); test: Western blot of human cell lysates (HAP1, HEK293; NaOH treatment, Lcmt-1-KO); type: binding; details: HAP1, HEK293
T3 construct: the carboxy-terminal methyl group was chemically removed from cellular PP2Ac; endogenous in cells; host or cells: HAP1 wild type, HAP1 Lcmt-1-KO, HEK293Trex / HEK293T
Experimental: NIH3T3 mouse fibroblasts and human embryonic kidney cells (HEK293Trex) were grown in DMEM+10% FCS+2 mM L-glutamine (Sigma, G2150)+100 units/ml Penicillin/0.1 mg/ml Streptomycin at 37° C. in a 7.5% CO2 atmosphere. HAP1 wild type and HAP1 Lcmt-1-KO cells (Leucine carboxyl methyltransferase 1 deleted by CRISPR/Cas9; Horizon Discovery, #C631 and #HZGHC004373c001) were grown in Iscove's Modified Dulbecco's Medium (IMDM, Thermo Fischer Scientific, Life Technologies #12440053) supplemented with 10% (v/v) Fetal Calf Serum (FCS) (Sigma #F7524, lot 104M3333), GlutaMAX™ (Thermo Fischer Scientific, Life Technologies #35050-38, lot 1895829), and Penicillin-Streptomycin solution (Sigma, #P4333, lot 125M4781V) in a 5% CO2 atmosphere. Of note, HAP1 is a near-haploid human cell line that was derived from the chronic myelogenous leukemia (CML) cell line KBM-7 (Carette (2011), Nature 477(7364):340-3). For cell lysis, exponentially growing cells were washed once with ice-cold PBS, once with ice-cold IP-Wash buffer (20 mmol/l Tris pH 8.0, 135 mmol/l NaCl, 10% glycerol) and lysed on the petri-dish in ice-cold IP-Lyse buffer (18 mmol/l Tris pH 8.0, 122 mmol/l NaCl, 9% glycerol, 1% w/v NP-40) for 20 min at 4° C. rocking. Lysed cells were transferred to Eppendorf 1.5 ml tubes and centrifuged for 15 min at 14,000 rpm at 4° C. in a Beckman & Coulter Microfuge 18 centrifuge. The protein concentration was determined with the Protein Assay Dye Reagent (Biorad, 500-0006) and measurement of absorbance at 595 nm in a Hitachi U-2000 spectrophotometer. […]
To test these antibodies in the western blot analysis with methylated and non-methylated full-length PP2Ac the methyl group was chemically removed from cellular PP2Ac by treating lysates of the human cell line, HAP1, with NaOH, as described in Example 2. […] In agreement with the results of the NaOH experiments, […] of PP2Ac were detected in HAP1 cells that lack the PP2A methyltransferase LCMT-1 indicating the preference of these antibodies for non-methylated PP2Ac (FIG. 22). […]

T3 sequence (P67775 whole entry): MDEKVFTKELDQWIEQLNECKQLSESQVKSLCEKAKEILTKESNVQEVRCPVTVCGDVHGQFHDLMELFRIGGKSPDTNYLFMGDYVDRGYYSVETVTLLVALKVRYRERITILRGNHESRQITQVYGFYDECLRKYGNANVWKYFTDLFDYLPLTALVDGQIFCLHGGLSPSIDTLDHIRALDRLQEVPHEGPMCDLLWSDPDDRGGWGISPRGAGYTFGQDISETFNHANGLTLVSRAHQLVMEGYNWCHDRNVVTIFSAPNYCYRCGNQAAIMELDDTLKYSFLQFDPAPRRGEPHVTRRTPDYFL

| Molecule | binding result [1] | recognition of meL309 versus non-carboxymethylated peptides [2] | detection of PP2Ac in untreated versus NaOH treated cell lysates (PP2Ac) |
| --- | --- | --- | --- |
| recombinant monovalent single chain variable fragment (scFv) of antibody 7C10-C5 (scFv, VL - 19 aa linker - VH - 8 aa of CH1 - 6xHis - HA tag; secreted into HEK293T supernatant, used undiluted; also called 7C10 scFvs; monovalent 7C10-C5 scFv) scFv: DVLMTQTPLSLPVSLGDQASISCRSSQSIVHSNGNTYLEWYLQKPGQSPKLLIYKVSNRFSGVPDRFSGSGSGTDFTLKINRVEAEDLGVYYCFQGSHVPWTFGGGTKLEIKSSGGGGSGGGGGGSSRSSLDVQLQESGPGLVKPSQSLSLTCSVTGYSITSGYYWNWIRQFPGNKLEWMGYISYDGSNNYNPSLKNRISITRDTSKNQFFLKLNSVTTEDTATYYCAGRFAYWGQGTLVTVSAAKTTPPSVTSGQAGQHHHHHHGAYPYDVPDYAS | no binding (tested: undiluted supernatant) | – | – |
| recombinant bivalent single chain variable fragment (scFv) of antibody 7C10-C5 (scFv, Two VL-linker-VH units joined by a (Gly-Ser)x15 linker, C-terminal 6xHis and HA tag; HEK293T supernatant, undiluted; Signal peptide (residues 1-22, before the first VL) left out by counting; also called 7C10 bi-scFvs; bivalent 7C10-C5 scFv) scFv: DVLMTQTPLSLPVSLGDQASISCRSSQSIVHSNGNTYLEWYLQKPGQSPKLLIYKVSNRFSGVPDRFSGSGSGTDFTLKINRVEAEDLGVYYCFQGSHVPWTFGGGTKLEIKSSGGGGSGGGGGGSSRSSLDVQLQESGPGLVKPSQSLSLTCSVTGYSITSGYYWNWIRQFPGNKLEWMGYISYDGSNNYNPSLKNRISITRDTSKNQFFLKLNSVTTEDTATYYCAGRFAYWGQGTLVTVSAAKTTPPSVGSGSGSGSGSGSGSGSGSGSGSGSGSGSGSDVLMTQTPLSLPVSLGDQASISCRSSQSIVHSNGNTYLEWYLQKPGQSPKLLIYKVSNRFSGVPDRFSGSGSGTDFTLKINRVEAEDLGVYYCFQGSHVPWTFGGGTKLEIKSSGGGGSGGGGGGSSRSSLDVQLQESGPGLVKPSQSLSLTCSVTGYSITSGYYWNWIRQFPGNKLEWMGYISYDGSNNYNPSLKNRISITRDTSKNQFFLKLNSVTTEDTATYYCAGRFAYWGQGTLVTVSAAKTTPPSVTSGQAGQHHHHHHGAYPYDVPDYAS | no binding (tested: undiluted supernatant) | – | – |
| recombinant 7C10-C5: recombinant 7C10-C5 antibody with mIgCK light chain and mIgG2a heavy chain (SEQ ID NO:123, 125) (protein, Amino acid sequence of the recombinant 7C10-C5 light chain; Amino acid sequence of the recombinant 7C10-C5 heavy chain) light: MDMRVPAQLLGLLLLWLSGARCDVLMTQTPLSLPVSLGDQASISCRSSQSIVHSNGNTYLEWYLQKPGQSPKLLIYKVSNRFSGVPDRFSGSGSGTDFTLKINRVEAEDLGVYYCFQGSHVPWTFGGGTKLEIKADAAPTVSIFPPSSEQLTSGGASVVCFLNNFYPKDINVKWKIDGSERQNGVLNSWTDQDSKDSTYSMSSTLTLTKDEYERHNSYTCEATHKTSTSPIVKSFNRNEC heavy: MYRMQLLSCIALSLALVTNSDVQLQESGPGLVKPSQSLSLTCSVTGYSITSGYYWNWIRQFPGNKLEWMGYISYDGSNNYNPSLKNRISITRDTSKNQFFLKLNSVTTEDTATYYCAGRFAYWGQGTLVTVSAAKTTAPSVYPLAPVCGDTTGSSVTLGCLVKGYFPEPVTLTWNSGSLSSGVHTFPAVLQSDLYTLSSSVTVTSSTWPSQSITCNVAHPASSTKVDKKIEPRGPTIKPCPPCKCPAPNLLGGPSVFIFPPKIKDVLMISLSPIVTCVVVDVSEDDPDVQISWFVNNVEVHTAQTQTHREDYNSTLRVVSALPIQHQDWMSGKEFKCKVNNKDLPAPIERTISKPKGSVRAPQVYVLPPPEEEMTKKQVTLTCMVTDFMPEDIYVEWTNNGKTELNYKNTEPVLDSDGSYFMYSKLRVEKKNWVERNSYSCSVVHEGLHNHHTTKSFSRTPGK | – | Specific for the α-Carboxymethylated PP2Ac | only detected methylated PP2Ac in the untreated cell lysates but not in the NaOH treated lysates |
